Values of other authors in paper PMC7150914.

What was measured:
[1] = molecular target: CNGA1 (Bos taurus) (UniProt Q00194)
[2] = molecular target: CNGA2 (Rattus norvegicus) (UniProt Q00195)
[3] = molecular target: PSP94 (β-microseminoprotein) (Homo sapiens) (UniProt P08118)
[4] = molecular target: α-1B glycoprotein (Homo sapiens) (UniProt P04217)
UniProt P04217, sequence (P04217 22-495): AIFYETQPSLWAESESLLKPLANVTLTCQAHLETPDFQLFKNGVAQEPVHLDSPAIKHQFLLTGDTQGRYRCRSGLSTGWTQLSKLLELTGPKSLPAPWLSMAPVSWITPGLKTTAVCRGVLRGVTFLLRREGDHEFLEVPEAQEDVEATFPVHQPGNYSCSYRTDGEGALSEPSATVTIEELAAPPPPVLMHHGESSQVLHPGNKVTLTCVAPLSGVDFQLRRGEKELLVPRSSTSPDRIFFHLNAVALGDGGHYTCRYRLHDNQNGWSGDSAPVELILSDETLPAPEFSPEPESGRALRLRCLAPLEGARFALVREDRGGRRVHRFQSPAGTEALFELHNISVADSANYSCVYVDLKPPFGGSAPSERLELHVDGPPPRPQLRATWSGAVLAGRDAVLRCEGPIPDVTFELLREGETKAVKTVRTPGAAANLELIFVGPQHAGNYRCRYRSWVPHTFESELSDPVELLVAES

UniProt Q00194, sequence (Q00194 whole entry): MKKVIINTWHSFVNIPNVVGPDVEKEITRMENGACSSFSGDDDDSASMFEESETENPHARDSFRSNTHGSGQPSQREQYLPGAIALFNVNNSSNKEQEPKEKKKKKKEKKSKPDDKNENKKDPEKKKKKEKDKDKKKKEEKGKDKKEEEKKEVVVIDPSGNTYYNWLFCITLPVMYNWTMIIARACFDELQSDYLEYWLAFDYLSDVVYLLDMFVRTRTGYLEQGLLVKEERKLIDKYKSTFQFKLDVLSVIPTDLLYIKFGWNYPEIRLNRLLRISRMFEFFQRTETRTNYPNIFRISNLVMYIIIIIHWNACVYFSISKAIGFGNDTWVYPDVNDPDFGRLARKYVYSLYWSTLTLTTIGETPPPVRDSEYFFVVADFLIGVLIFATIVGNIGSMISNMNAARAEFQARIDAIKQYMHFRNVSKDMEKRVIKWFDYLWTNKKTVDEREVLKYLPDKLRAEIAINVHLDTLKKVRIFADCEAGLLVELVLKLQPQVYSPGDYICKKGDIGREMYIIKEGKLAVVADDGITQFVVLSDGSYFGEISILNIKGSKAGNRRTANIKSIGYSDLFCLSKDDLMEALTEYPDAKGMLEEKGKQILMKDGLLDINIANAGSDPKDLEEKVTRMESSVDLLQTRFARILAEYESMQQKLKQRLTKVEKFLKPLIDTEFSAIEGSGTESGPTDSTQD
UniProt P08118, sequence (P08118 21-114): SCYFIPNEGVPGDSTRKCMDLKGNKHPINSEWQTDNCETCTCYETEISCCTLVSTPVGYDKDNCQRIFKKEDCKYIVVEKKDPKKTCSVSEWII
UniProt Q00195, sequence (Q00195 whole entry): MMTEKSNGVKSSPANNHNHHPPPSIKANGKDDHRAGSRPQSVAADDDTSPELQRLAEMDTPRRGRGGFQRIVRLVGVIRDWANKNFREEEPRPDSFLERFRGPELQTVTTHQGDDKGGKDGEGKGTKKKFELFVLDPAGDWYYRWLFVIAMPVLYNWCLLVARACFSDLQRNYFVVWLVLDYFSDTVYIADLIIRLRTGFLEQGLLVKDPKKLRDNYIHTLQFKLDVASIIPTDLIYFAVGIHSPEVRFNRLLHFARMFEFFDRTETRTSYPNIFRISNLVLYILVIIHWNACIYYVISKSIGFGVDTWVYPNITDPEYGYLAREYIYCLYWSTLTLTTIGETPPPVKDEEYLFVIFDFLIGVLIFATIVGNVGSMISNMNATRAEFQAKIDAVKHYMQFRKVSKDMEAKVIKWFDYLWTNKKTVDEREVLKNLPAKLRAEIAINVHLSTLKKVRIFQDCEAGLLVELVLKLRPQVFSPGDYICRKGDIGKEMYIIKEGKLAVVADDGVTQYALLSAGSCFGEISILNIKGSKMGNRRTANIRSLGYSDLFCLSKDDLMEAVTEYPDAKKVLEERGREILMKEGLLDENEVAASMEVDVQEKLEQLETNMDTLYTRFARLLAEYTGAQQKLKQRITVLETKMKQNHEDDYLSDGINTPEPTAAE

Substance | Ki [1] [nM] | Ki [2] [nM] | Kd [3] [nM] | Kd [4] [nM]
Pseudechetoxin (PsTx) (from UniProt Q8AVA4) | 70 | 15 | – | –
CRISP-3 (from UniProt P54108) | – | – | 0.0628 | 2.8
